# Reference: the Human Domainome abundance scans (Beltran et al. 2025)
# ± gives the uncertainty stated by the source.
# B1: Dystrobrevin alpha, residues 235 to 294; numbered along this chain, Q9Y4J8 (parent)
# chain: ENVFHPVECSYCHSESMMGFRYRCQQCHNYQLCQDCFWRGHAGGSHSNQHQMKEYTSWKS
# Variants of: B1
# Assay: abundance fitness (aPCA) (normalised: wild type 0, dead -1); higher = more abundant; growth selection in yeast, the domain comes from the species named
# Conditions: Homo sapiens
row,Variant,abundance fitness
1,Q31R,-0.318 ± 0.08
2,Q31K,-0.318 ± 0.13
3,L32Y,-0.38 ± 0.14
4,L32Q,-0.455 ± 0.13
5,L32M,-0.793 ± 0.19
6,L32K,-0.538 ± 0.18
7,L32E,-0.395 ± 0.33
8,L32G,-0.511 ± 0.14
9,L32A,-0.656 ± 0.15
10,L32W,-0.751 ± 0.26
11,L32V,-0.102 ± 0.12
12,L32T,0.053 ± 0.21
13,L32D,-0.356 ± 0.32
14,L32C,0.038 ± 0.28
15,L32S,-0.308 ± 0.14
16,L32R,-0.647 ± 0.12
17,S47K,0.038 ± 0.087
18,S47D,0.044 ± 0.056
19,S47I,-0.25 ± 0.076
20,S47F,-0.455 ± 0.12
21,S47Q,-0.031 ± 0.11
22,S47C,-0.103 ± 0.074
23,S47V,-0.199 ± 0.051
24,S47R,-0.118 ± 0.053

row,Variant,abundance fitness
1,S47A,-0.349 ± 0.054
2,S47N,0.029 ± 0.058
3,S47W,-0.051 ± 0.095
4,S47Y,-0.57 ± 0.099
5,S47P,-0.172 ± 0.072
6,S47G,-0.22 ± 0.046
7,S47L,-0.333 ± 0.086
8,S47E,-0.028 ± 0.064
9,S47M,-0.322 ± 0.079
10,S47H,-0.091 ± 0.15
11,C36K,-0.192 ± 0.15
12,C36V,-0.873 ± 0.19
13,C36I,-0.733 ± 0.17
14,C36P,-0.565 ± 0.17
15,C36L,-0.817 ± 0.16
16,C36S,-0.992 ± 0.16
17,C36A,-0.881 ± 0.14
18,C36Y,-0.734 ± 0.13
19,C36G,-0.596 ± 0.1
20,C36W,-0.94 ± 0.22
21,C36F,-0.994 ± 0.29
22,C36D,-0.624 ± 0.16
23,C36Q,-0.723 ± 0.26
24,C36R,-0.695 ± 0.1

row,Variant,abundance fitness
1,C36M,-0.723 ± 0.47
2,Q34M,-0.302 ± 0.14
3,Q34G,-0.027 ± 0.11
4,Q34Y,-0.147 ± 0.12
5,Q34N,-0.146 ± 0.11
6,Q34V,-0.169 ± 0.13
7,Q34H,-0.156 ± 0.065
8,Q34K,0.127 ± 0.16
9,Q34R,-0.047 ± 0.053
10,Q34L,-0.423 ± 0.092
11,Q34A,-0.053 ± 0.12
12,Q34W,-0.606 ± 0.15
13,Q34E,0.044 ± 0.11
14,Q34F,-0.394 ± 0.14
15,Q34S,-0.087 ± 0.12
16,Q34P,-0.163 ± 0.16
17,Q34D,-0.267 ± 0.13
18,Q34T,-0.19 ± 0.17
19,G40S,-0.229 ± 0.065
20,G40W,-0.352 ± 0.099
21,G40F,-0.193 ± 0.081
22,G40L,-0.384 ± 0.056
23,G40M,-0.404 ± 0.16
24,G40K,-0.045 ± 0.093

row,Variant,abundance fitness
1,G40V,-0.266 ± 0.038
2,G40Q,-0.281 ± 0.12
3,G40A,-0.391 ± 0.1
4,G40D,-0.166 ± 0.14
5,G40T,-0.366 ± 0.1
6,G40N,-0.138 ± 0.15
7,G40R,-0.206 ± 0.065
8,G40E,-0.284 ± 0.092
9,G40I,-0.27 ± 0.09
10,G40C,-0.227 ± 0.11
11,H41L,-0.038 ± 0.061
12,H41K,0.089 ± 0.085
13,H41G,-0.312 ± 0.076
14,H41D,-0.296 ± 0.1
15,H41N,0.063 ± 0.084
16,H41P,-0.192 ± 0.08
17,H41S,0.037 ± 0.057
18,H41R,0.067 ± 0.047
19,H41V,0.122 ± 0.055
20,H41M,-0.014 ± 0.14
21,H41A,0.013 ± 0.082
22,H41C,0.013 ± 0.082
23,H41Q,0.146 ± 0.12
24,H41W,-0.323 ± 0.093

row,Variant,abundance fitness
1,H41E,-0.09 ± 0.078
2,H41F,-0.044 ± 0.077
3,H41I,-0.284 ± 0.1
4,H41Y,-0.127 ± 0.18
5,G43F,-0.542 ± 0.12
6,G43E,0.087 ± 0.065
7,G43W,-0.208 ± 0.13
8,G43H,-0.09 ± 0.15
9,G43I,-0.685 ± 0.19
10,G43P,-0.765 ± 0.15
11,G43A,-0.325 ± 0.073
12,G43S,0.09 ± 0.063
13,G43M,-0.068 ± 0.15
14,G43V,-0.352 ± 0.073
15,G43C,-0.034 ± 0.081
16,G43T,-0.139 ± 0.086
17,G43D,0.325 ± 0.1
18,G43N,0.121 ± 0.13
19,G43L,-0.221 ± 0.064
20,C33F,-0.625 ± 0.15
21,C33E,-0.541 ± 0.093
22,C33R,-0.675 ± 0.098
23,C33K,-0.983 ± 0.2
24,C33G,-0.78 ± 0.081

row,Variant,abundance fitness
1,C33Q,-0.609 ± 0.1
2,C33W,-0.811 ± 0.14
3,C33T,-0.944 ± 0.15
4,C33V,-0.836 ± 0.088
5,C33L,-0.874 ± 0.099
6,C33D,-0.894 ± 0.12
7,C33I,-0.884 ± 0.18
8,C33S,-0.658 ± 0.086
9,C33N,-0.592 ± 0.14
10,C33H,-0.659 ± 0.28
11,C33A,-0.495 ± 0.089
12,C33Y,-0.954 ± 0.16
13,C33M,-0.823 ± 0.11
14,H46R,-0.189 ± 0.076
15,H46E,-0.198 ± 0.081
16,H46I,-0.366 ± 0.094
17,H46W,-0.427 ± 0.16
18,H46T,-0.219 ± 0.073
19,H46Y,-0.538 ± 0.12
20,H46M,-0.17 ± 0.073
21,H46C,-0.366 ± 0.11
22,H46F,-0.514 ± 0.14
23,H46V,-0.227 ± 0.076
24,H46G,-0.165 ± 0.087

row,Variant,abundance fitness
1,H46D,-0.2 ± 0.085
2,H46P,-0.27 ± 0.093
3,H46L,-0.419 ± 0.078
4,H46A,-0.186 ± 0.073
5,H46K,-0.117 ± 0.1
6,H46Q,-0.331 ± 0.13
7,H46N,-0.316 ± 0.14
8,Q49C,-0.083 ± 0.049
9,Q49V,-0.034 ± 0.036
10,Q49G,0.103 ± 0.038
11,Q49I,-0.205 ± 0.06
12,Q49P,-0.249 ± 0.052
13,Q49F,-0.138 ± 0.059
14,Q49K,-0.14 ± 0.046
15,Q49D,0.128 ± 0.06
16,Q49R,0.017 ± 0.035
17,Q49H,-0.141 ± 0.076
18,Q49A,0.073 ± 0.031
19,Q49L,-0.003 ± 0.034
20,Q49T,0.072 ± 0.041
21,Q49N,0.019 ± 0.062
22,Q49S,0.029 ± 0.036
23,Q49Y,-0.256 ± 0.046
